# Source: patent publication US20150152165
# B1: Human Leukocyte Elastase (protein)
# chain: IVGGRRARPHAWPFMVSLQLRGGHFCGATLIAPNFVMSAAHCVANVNVRAVRVVLGAHNLSRREPTRQVFAVQRIFENGYDPVNLLNDIVILQLNGSATINANVQVAQLPAQGRRLGNGVQCLAMGWGLLGRNRGIASVLQELNVTVVTSLCRRSNVCTLVRGRQAGVCFGDSGSPLVCNGLIHGIASFVRGGCASGLYPDAFAPVAQFVNWIDSIIQ
# Columns and labels:
# [1] = system: SELP815K 6-mer
# [2] = system: SELP815K-MMPRS 6-mer
# [3] = target: SELP415K
# [4] = target: SELP47K
# [5] = target: SELP815K 6-mer; remark: listed apart in the source
Molecule,SDS-PAGE analysis of enzymatic digestion [1],Young's modulus of hydrogel [1],protein loss from hydrogel in the presence of MMPs [1],total release of 100 nm fluorescent nanoparticles from hydrogel at two weeks (no treatment 9.3%) [1],SDS-PAGE analysis of enzymatic digestion [2],"higher protein loss from hydrogel compared to control (2 weeks, 10 nM MMP) [2]",increase of nanoparticle release compared to control [2],percentage of total polymer per hydrogel lost (control about 24%) [2],total release of 100 nm fluorescent nanoparticles from hydrogel at two weeks (no treatment 8.2%) [2],loss in Young's modulus of hydrogel [2],soluble fraction release from hydrogel (elastase degradation) [3],soluble fraction release from hydrogel (elastase degradation) [4],soluble fraction release from hydrogel (elastase degradation) [5]
MMP-2,SELP815K without the responsive sequence is not,there was no significant effect present in the standard SELP-815K polymer,SELP815K displayed statistically insignificant levels of increased protein loss in the presence of MMPs,"MMP-2 and MMP-9 treatment conditions yielded release of 12.1% and 9.4%, respectively",SELP815K-MMPRS is digested by MMP-2 and MMP-9,63% and 44% higher protein loss compared to control,increases of 65% and 95% compared to control,"enzymatic digestion increasing this percentage to 39% and 35% for MMP-2 and MMP-9-induced degradation, respectively",treatment with MMP-2 and MMP-9 caused release of 13.5% and 16% respectively,–,–,–,–
MMP-9,SELP815K without the responsive sequence is not,there was no significant effect present in the standard SELP-815K polymer,SELP815K displayed statistically insignificant levels of increased protein loss in the presence of MMPs,"MMP-2 and MMP-9 treatment conditions yielded release of 12.1% and 9.4%, respectively",SELP815K-MMPRS is digested by MMP-2 and MMP-9,63% and 44% higher protein loss compared to control,increases of 65% and 95% compared to control,"enzymatic digestion increasing this percentage to 39% and 35% for MMP-2 and MMP-9-induced degradation, respectively",treatment with MMP-2 and MMP-9 caused release of 13.5% and 16% respectively,MMP-9 affected a 24% loss,–,–,–
B1,–,–,–,–,–,–,–,–,–,–,SELP415K appears to be the most sensitive to elastase degradation,SELP815K at 8 wt % is more resistant to degradation than SELP47K and SELP415K at 12 wt %,SELP815K shows the lowest sensitivity to degradation
